The assay deals with JMJD8-FLAG-HA (HeLa-JMJD8-FLAG-HA) (human) (UniProt Q96S16). In words: SEC; gel filtration (Superdex 200) of total cell lysate of HeLa S3 cells stably expressing JMJD8-FLAG-HA; fractions immunoblotted with anti-FLAG.

For “JMJD8-FLAG-HA (HeLa-JMJD8-FLAG-HA) (from UniProt Q96S16-1 24-264) (natural protein)”, the stoichiometry N amounted to 2.

By stoichiometry N is commonly meant the number of molecules, sites or subunits per partner or assembly.

(Values after publication PMC5684140.)
